Laboratory results: article PMC4330387

Assays:
[1] = target: T1, GST-ZFDBD-ZBTB2 (human, UniProt Q8N680 254-468); assay: EMSA
T1 sequence: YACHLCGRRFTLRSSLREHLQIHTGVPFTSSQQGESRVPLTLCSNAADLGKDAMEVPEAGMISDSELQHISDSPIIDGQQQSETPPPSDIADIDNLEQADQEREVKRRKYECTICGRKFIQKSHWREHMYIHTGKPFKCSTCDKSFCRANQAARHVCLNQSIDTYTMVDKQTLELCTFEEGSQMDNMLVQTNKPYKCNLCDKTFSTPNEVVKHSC

[2] = target: Sp1 (recombinant) (UniProt P08047 1-785); assay: EMSA
Chain of Sp1 (recombinant) (P08047 whole entry): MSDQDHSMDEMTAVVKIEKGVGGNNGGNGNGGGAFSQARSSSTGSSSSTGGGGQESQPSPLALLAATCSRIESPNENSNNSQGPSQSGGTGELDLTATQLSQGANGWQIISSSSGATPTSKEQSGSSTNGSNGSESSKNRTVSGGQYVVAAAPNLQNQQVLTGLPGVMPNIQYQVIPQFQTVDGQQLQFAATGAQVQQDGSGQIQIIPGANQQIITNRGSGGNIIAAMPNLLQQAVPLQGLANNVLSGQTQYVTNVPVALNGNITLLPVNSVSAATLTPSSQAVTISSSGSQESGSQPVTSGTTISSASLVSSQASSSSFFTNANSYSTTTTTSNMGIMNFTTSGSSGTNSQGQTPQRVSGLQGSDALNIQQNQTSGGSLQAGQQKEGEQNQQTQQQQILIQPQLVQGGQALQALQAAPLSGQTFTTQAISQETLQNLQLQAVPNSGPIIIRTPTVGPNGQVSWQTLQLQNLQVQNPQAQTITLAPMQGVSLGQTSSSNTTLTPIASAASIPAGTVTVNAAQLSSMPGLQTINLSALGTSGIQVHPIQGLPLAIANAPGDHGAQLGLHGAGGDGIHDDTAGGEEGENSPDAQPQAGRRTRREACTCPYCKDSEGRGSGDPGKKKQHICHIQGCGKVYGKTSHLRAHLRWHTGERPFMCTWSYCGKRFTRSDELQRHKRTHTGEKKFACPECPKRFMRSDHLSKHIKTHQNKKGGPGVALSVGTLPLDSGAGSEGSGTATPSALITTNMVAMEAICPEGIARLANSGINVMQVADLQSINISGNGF

B1: GC-box #3 EMSA probe (dsDNA)
DNA 1: GATCTTTCCCTGCGCGGGGCGGGCGGCCGCAGCCC
DNA 2: GGGCTGCGGCCGCCCGCCCCGCGCAGGGAAAGATC
B1: binds [1]; binds [2].
